Biological target: T1, SNF4-pACTII (unrelated fusion with Gal4 activation domain) (yeast, UniProt P12904)
T1 sequence: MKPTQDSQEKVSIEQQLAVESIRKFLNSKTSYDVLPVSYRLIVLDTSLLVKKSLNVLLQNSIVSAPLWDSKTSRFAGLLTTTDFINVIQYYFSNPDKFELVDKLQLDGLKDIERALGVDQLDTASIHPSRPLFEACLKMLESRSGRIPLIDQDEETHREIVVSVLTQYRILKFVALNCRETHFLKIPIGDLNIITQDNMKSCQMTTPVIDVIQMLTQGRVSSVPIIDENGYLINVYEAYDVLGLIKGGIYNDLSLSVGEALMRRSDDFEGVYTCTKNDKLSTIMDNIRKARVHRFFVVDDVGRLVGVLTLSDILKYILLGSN
Assay: yeast two-hybrid, HIS3 reporter, strain YCB5.1
Procedure: Figure 1: FIG. 1: Investigation of the MORT1 transcript isoforms with MACHα1 C360S in a yeast two-hybrid system: Activation of the HIS3 reporter gene. Each MORT1 transcript isoforms was expressed as a fusion protein with Gal4 DNA binding domain. MACHα1 C360S was expressed as a fusion protein with the Gal4 activation domain. Yeast strains were plated at a cell density of 5 ×10^1, 5 ×10^2, 5 ×10^3, 5 ×10^4 and 5 ×10^5 (left to right within a plate. Sibling isolates from yeast strains expressing a MORT1 transcript isoform with MACHα1 C360S fusion proteins were plated on histidine deficient media containing 0, 20 or 40 mM 3-aminotriazole (3-AT). The top row of plates (1) contained yeast strains that express two fusion proteins as follows: YCB5: MORT1-pAS1/MACHα1 C360S-pACTII; YCB9: MORT1Δ21-pAS1/MACHα1 C360S-pACTII; YCB16: MORT1 G173A-pAS1/MACHα1 C360S-pACTII. The bottom row of plates (3) contains negative control strains which express only the MORT1 transcript isoform fusion protein with a recombinant vector containing nonrelated heterologous DNA, as follows: YCB5.1: MORT1-pAS1/SNF4-pACTII; YCB9.1: […]. […] Each MORT1 transcript isoforms was expressed as a fusion protein with Gal4 DNA binding domain. MACHα1 C360S was expressed as a fusion protein with the Gal4 activation domain. […]

binding result: no binding
B1: MORT1 fusion protein with Gal4 DNA binding domain (MORT1-pAS1) (other)
chain: MDPFLVLLHSVSSSLSSSELTELKFLCLGRVGKRKLERVQSGLDLFSMLLEQNDLEPGHTELLRELLASLRRHDLLRRVDDFEAGAAAGAAPGEEDLCAAFNVICDNVGKDWRRLARQLKVSDTKIDSIEDRYPRNLTERVRESLRIWKNTEKENATVAHLVGALRSCQMNLVADLVQEVQQARDLQNRSGAMSPMSWNSDASTSEAS
